T1: cynomolgus monkey FcγRIIa2 extracellular domain with C-terminal His-tag (cynomolgus monkey)
T1 construct: also called cyno FcgRIIa2; cynoFcγRIIa2
T1 chain: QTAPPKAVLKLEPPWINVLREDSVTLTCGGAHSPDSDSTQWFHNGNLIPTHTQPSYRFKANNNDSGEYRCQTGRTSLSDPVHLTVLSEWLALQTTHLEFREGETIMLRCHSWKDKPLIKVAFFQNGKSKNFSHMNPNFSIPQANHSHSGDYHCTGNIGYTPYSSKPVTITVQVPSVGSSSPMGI

T2: human FcγRIIaH extracellular domain with C-terminal His-tag (human, UniProt P12318 34-217)
T2 construct: also called human FcgRIIaH; FcγRIIa (type H)
T2 sequence: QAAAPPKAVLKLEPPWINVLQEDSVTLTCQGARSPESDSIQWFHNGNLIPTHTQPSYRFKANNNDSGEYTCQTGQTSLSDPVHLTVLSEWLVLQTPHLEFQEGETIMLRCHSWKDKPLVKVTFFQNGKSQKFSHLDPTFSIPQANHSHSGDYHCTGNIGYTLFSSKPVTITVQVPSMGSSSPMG

T3: human FcγRIIaR extracellular domain with C-terminal His-tag (human, UniProt P12318 34-217)
T3 construct: also called human FcgRIIaR; FcγRIIa (type R)
T3 chain: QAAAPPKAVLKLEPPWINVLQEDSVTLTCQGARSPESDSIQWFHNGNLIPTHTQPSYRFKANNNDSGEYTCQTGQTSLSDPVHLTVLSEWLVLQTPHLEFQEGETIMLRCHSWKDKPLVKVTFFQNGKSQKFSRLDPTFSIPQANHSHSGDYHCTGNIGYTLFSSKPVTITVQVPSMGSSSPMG

T4: human FcγRIIb extracellular domain with C-terminal His-tag (human, UniProt P31994 43-217)
T4 construct: also called human FcgRIIb
T4 sequence: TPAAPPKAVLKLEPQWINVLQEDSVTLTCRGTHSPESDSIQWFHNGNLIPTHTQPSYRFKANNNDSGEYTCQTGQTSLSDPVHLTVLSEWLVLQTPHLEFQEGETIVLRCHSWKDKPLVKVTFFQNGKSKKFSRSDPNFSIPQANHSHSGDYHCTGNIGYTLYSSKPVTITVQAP

T5: cynomolgus monkey FcγRIIIaS extracellular domain with C-terminal His-tag (cynomolgus monkey, UniProt Q8SPW2 21-206 at identity 1.00))
T5 construct: also called cyno FcgRIIIaS; cynoFcγRIIIaS
T5 chain: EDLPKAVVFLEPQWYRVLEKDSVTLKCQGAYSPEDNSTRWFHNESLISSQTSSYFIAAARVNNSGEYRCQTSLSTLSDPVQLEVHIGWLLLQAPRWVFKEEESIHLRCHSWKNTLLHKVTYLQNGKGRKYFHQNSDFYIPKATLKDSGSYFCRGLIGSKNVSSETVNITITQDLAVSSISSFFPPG

T6: cynomolgus monkey FcγRIIb extracellular domain with C-terminal His-tag (cynomolgus monkey)
T6 construct: also called cyno FcgRIIb; cynoFcγRIIb
T6 chain: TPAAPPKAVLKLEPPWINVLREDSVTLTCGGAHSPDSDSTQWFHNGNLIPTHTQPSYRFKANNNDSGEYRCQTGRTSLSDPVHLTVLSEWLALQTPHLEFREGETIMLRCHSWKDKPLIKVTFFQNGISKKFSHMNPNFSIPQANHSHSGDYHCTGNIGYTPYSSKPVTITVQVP

T7: cynomolgus monkey FcγRIIa1 extracellular domain with C-terminal His-tag (cynomolgus monkey)
T7 construct: also called cyno FcgRIIa1; cynoFcγRIIa1
T7 chain: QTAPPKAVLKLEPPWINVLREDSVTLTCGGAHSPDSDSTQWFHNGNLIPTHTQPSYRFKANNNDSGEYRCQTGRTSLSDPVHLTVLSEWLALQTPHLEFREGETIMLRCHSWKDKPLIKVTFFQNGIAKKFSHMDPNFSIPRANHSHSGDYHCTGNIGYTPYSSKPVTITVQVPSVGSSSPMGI

T8: cynomolgus monkey FcγRIIa3 extracellular domain with C-terminal His-tag (cynomolgus monkey)
T8 construct: also called cyno FcgRIIa3; cynoFcγRIIa3
T8 chain: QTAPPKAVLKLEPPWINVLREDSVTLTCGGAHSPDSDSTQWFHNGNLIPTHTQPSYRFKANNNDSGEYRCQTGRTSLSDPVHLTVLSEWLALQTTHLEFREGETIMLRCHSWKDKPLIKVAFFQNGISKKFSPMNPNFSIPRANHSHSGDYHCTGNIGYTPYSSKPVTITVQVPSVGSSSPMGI


Tests used:
Assay in all cases: SPR (BIACORE), antibody captured, FcgR analyte
[1] = biological target: T1, cynomolgus monkey FcγRIIa2 …
[2] = biological target: T2, human FcγRIIaH extracellular domain …
[3] = biological target: T3, human FcγRIIaR extracellular domain …
[4] = biological target: T4, human FcγRIIb extracellular domain with …
[5] = biological target: T5, cynomolgus monkey FcγRIIIaS …
[6] = biological target: T6, cynomolgus monkey FcγRIIb extracellular …
[7] = biological target: T7, cynomolgus monkey FcγRIIa1 …
[8] = biological target: T8, cynomolgus monkey FcγRIIa3 …

Row | Kd [1] | Kd [2] | Kd [3] | Kd [4] | Kd [5] | Kd [6] | Kd [7] | Kd [8] | Binder
1 | 1600 nM | 350 nM | 160 nM | 690 nM | 4400 nM | 760 nM | 260 nM | 1500 nM | M103205H795-MY514/M103202L889-SK1 (antibody, human IgG1, kappa, Substitutions introduced into M103205H795-SG1, expressed with M103202L889-SK1 as light chain; EU numbering) heavy: QVTLKESGPVLVKPTETLTLTCTVSGIDLSHDDISWVRQAPGKGLEWVGIISYAGSTYYASWAKGRLTISKDTSKNQVVLTMTNMDPVDTATYYCARGVPAYSHGGDLWGQGTLVTVSSASTKGPSVFPLAPSSKSTSGGTAALGCLVKDYFPEPVTVSWNSGALTSGVHTFPAVLQSSGLYSLSSVVTVPSSSLGTQTYICNVNHKPSNTKVDKKVEPKSCDKTHTCPPCPAPELLTGPVVFLFPPKPKDTLMISRTPEVTCVVVDVSDEDPEVKFNWYVDGVEVHNAKTKPREEQYNLTYRVVSVLTVLHQDWLNGKEYKCKVSNKALPKPIEKTISKAKGQPREPQVYTLPPSREEMTKNQVSLTCLVKGFYPSDIAVEWESNGQPENNYKTTPPVLDSDGSFFLYSKLTVDKSRWQQGNVFSCSVMHEALHNHYTQKSLSLSP light: DIVMTQSPATLSLSPGERATLSCTSSQSVYHANWLSWFQQKPGQPPKLLIYWASTLAYGVPSRFSGSGSGTDFTLTISSLQPEDAATYYCAGGYGGGRYAFGQGTKVEIKRTVAAPSVFIFPPSDEQLKSGTASVVCLLNNFYPREAKVQWKVDNALQSGNSQESVTEQDSKDSTYSLSSTLTLSKADYEKHKVYACEVTHQGLSSPVTKSFNRGEC
2 | 13000 nM | 220 nM | 85 nM | 510 nM | 3000 nM | 450 nM | 150 nM | 790 nM | M103205H795-MY516/M103202L889-SK1 (antibody, human IgG1, kappa, Substitutions introduced into M103205H795-SG1, expressed with M103202L889-SK1 as light chain; EU numbering) heavy: QVTLKESGPVLVKPTETLTLTCTVSGIDLSHDDISWVRQAPGKGLEWVGIISYAGSTYYASWAKGRLTISKDTSKNQVVLTMTNMDPVDTATYYCARGVPAYSHGGDLWGQGTLVTVSSASTKGPSVFPLAPSSKSTSGGTAALGCLVKDYFPEPVTVSWNSGALTSGVHTFPAVLQSSGLYSLSSVVTVPSSSLGTQTYICNVNHKPSNTKVDKKVEPKSCDKTHTCPPCPAPELLTGPVVFLFPPKPKDTLMISRTPEVTCVVVDVSDEDPEVKFNWYVDGVEVHNAKTKPREELYNLTYRVVSVLTVLHQDWLNGKEYKCKVSNKALPKPIEKTISKAKGQPREPQVYTLPPSREEMTKNQVSLTCLVKGFYPSDIAVEWESNGQPENNYKTTPPVLDSDGSFFLYSKLTVDKSRWQQGNVFSCSVMHEALHNHYTQKSLSLSP light: DIVMTQSPATLSLSPGERATLSCTSSQSVYHANWLSWFQQKPGQPPKLLIYWASTLAYGVPSRFSGSGSGTDFTLTISSLQPEDAATYYCAGGYGGGRYAFGQGTKVEIKRTVAAPSVFIFPPSDEQLKSGTASVVCLLNNFYPREAKVQWKVDNALQSGNSQESVTEQDSKDSTYSLSSTLTLSKADYEKHKVYACEVTHQGLSSPVTKSFNRGEC
3 | 33000 nM | 390 nM | 300 nM | 1500 nM | 2200 nM | 800 nM | 2500 nM | 4400 nM | M103205H795-MY521/M103202L889-SK1 (antibody, human IgG1, kappa, Substitutions introduced into M103205H795-SG1, expressed with M103202L889-SK1 as light chain; EU numbering) heavy: QVTLKESGPVLVKPTETLTLTCTVSGIDLSHDDISWVRQAPGKGLEWVGIISYAGSTYYASWAKGRLTISKDTSKNQVVLTMTNMDPVDTATYYCARGVPAYSHGGDLWGQGTLVTVSSASTKGPSVFPLAPSSKSTSGGTAALGCLVKDYFPEPVTVSWNSGALTSGVHTFPAVLQSSGLYSLSSVVTVPSSSLGTQTYICNVNHKPSNTKVDKKVEPKSCDKTHTCPPCPADELLTGPSVFLFPPKPKDTLMISRTPEVTCVVVDVSDEDPEVKFNWYVDGVEVHNAKTKPREELYNSTYRVVSVLTVLHQDWLNGKEYKCKVSNKALPKPIEKTISKAKGQPREPQVYTLPPSREEMTKNQVSLTCLVKGFYPSDIAVEWESNGQPENNYKTTPPVLDSDGSFFLYSKLTVDKSRWQQGNVFSCSVMHEALHNHYTQKSLSLSP light: DIVMTQSPATLSLSPGERATLSCTSSQSVYHANWLSWFQQKPGQPPKLLIYWASTLAYGVPSRFSGSGSGTDFTLTISSLQPEDAATYYCAGGYGGGRYAFGQGTKVEIKRTVAAPSVFIFPPSDEQLKSGTASVVCLLNNFYPREAKVQWKVDNALQSGNSQESVTEQDSKDSTYSLSSTLTLSKADYEKHKVYACEVTHQGLSSPVTKSFNRGEC
4 | 2300 nM | 490 nM | 340 nM | 1400 nM | 2000 nM | 960 nM | 2500 nM | 2100 nM | M103205H795-MY520/M103202L889-SK1 (antibody, human IgG1, kappa, Substitutions introduced into M103205H795-SG1, expressed with M103202L889-SK1 as light chain; EU numbering) heavy: QVTLKESGPVLVKPTETLTLTCTVSGIDLSHDDISWVRQAPGKGLEWVGIISYAGSTYYASWAKGRLTISKDTSKNQVVLTMTNMDPVDTATYYCARGVPAYSHGGDLWGQGTLVTVSSASTKGPSVFPLAPSSKSTSGGTAALGCLVKDYFPEPVTVSWNSGALTSGVHTFPAVLQSSGLYSLSSVVTVPSSSLGTQTYICNVNHKPSNTKVDKKVEPKSCDKTHTCPPCPADELLTGPVVFLFPPKPKDTLMISRTPEVTCVVVDVSDEDPEVKFNWYVDGVEVHNAKTKPREELYNSTYRVVSVLTVLHQDWLNGKEYKCKVSNKALPKPIEKTISKAKGQPREPQVYTLPPSREEMTKNQVSLTCLVKGFYPSDIAVEWESNGQPENNYKTTPPVLDSDGSFFLYSKLTVDKSRWQQGNVFSCSVMHEALHNHYTQKSLSLSP light: DIVMTQSPATLSLSPGERATLSCTSSQSVYHANWLSWFQQKPGQPPKLLIYWASTLAYGVPSRFSGSGSGTDFTLTISSLQPEDAATYYCAGGYGGGRYAFGQGTKVEIKRTVAAPSVFIFPPSDEQLKSGTASVVCLLNNFYPREAKVQWKVDNALQSGNSQESVTEQDSKDSTYSLSSTLTLSKADYEKHKVYACEVTHQGLSSPVTKSFNRGEC
5 | 1600 nM | 220 nM | 260 nM | 1200 nM | 3800 nM | 390 nM | 140 nM | 2900 nM | M103205H795-MY515/M103202L889-SK1 (antibody, human IgG1, kappa, Substitutions introduced into M103205H795-SG1, expressed with M103202L889-SK1 as light chain; EU numbering) heavy: QVTLKESGPVLVKPTETLTLTCTVSGIDLSHDDISWVRQAPGKGLEWVGIISYAGSTYYASWAKGRLTISKDTSKNQVVLTMTNMDPVDTATYYCARGVPAYSHGGDLWGQGTLVTVSSASTKGPSVFPLAPSSKSTSGGTAALGCLVKDYFPEPVTVSWNSGALTSGVHTFPAVLQSSGLYSLSSVVTVPSSSLGTQTYICNVNHKPSNTKVDKKVEPKSCDKTHTCPPCPAPELLTGPSVFLFPPKPKDTLMISRTPEVTCVVVDVSDEDPEVKFNWYVDGVEVHNAKTKPREELYNLTYRVVSVLTVLHQDWLNGKEYKCKVSNKALPKPIEKTISKAKGQPREPQVYTLPPSREEMTKNQVSLTCLVKGFYPSDIAVEWESNGQPENNYKTTPPVLDSDGSFFLYSKLTVDKSRWQQGNVFSCSVMHEALHNHYTQKSLSLSP light: DIVMTQSPATLSLSPGERATLSCTSSQSVYHANWLSWFQQKPGQPPKLLIYWASTLAYGVPSRFSGSGSGTDFTLTISSLQPEDAATYYCAGGYGGGRYAFGQGTKVEIKRTVAAPSVFIFPPSDEQLKSGTASVVCLLNNFYPREAKVQWKVDNALQSGNSQESVTEQDSKDSTYSLSSTLTLSKADYEKHKVYACEVTHQGLSSPVTKSFNRGEC
